From the supplement of paper PMC9170038 come the findings set out here.

This data set has as its system MS2 coat protein. As to the kind of experiment: apparent KD of MS2 coat protein; higher = weaker reporter binding. The note with it: Eterna round: R107. In outline: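 Each design's apparent KD comes from the median of binding-curve fits to its normalised clusters. Those clusters carried RNA switches transcribed on-chip from Illumina sequencing clusters. SNAP-549-labelled MS2 coat protein was titrated onto them in twofold steps (0.7 or 1.5 nM to 3 µM; per step 0.8–1.5 h down to 10–20 min). Conditions were 100 mM Tris-HCl pH 7.5, 80 mM KCl, 4 mM MgCl2, without or with constant ligand.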

The mark [1] stands for this setting: input ligand: theophylline 20 uM.
Where [2] appears, read: input ligand: theophylline 2 mM.
[3] abbreviates: input ligand: tryptophan 2.4 mM.

Take “UAAAGUAGGUCCAAUAAAACUACAUGUGAAGGAGCGCGCGAAAGCGCAGGUAGGUCGCACAUGAGGAUCACCCAUGUCCUACAAU [MAT - Exclusion Arginine A - Mod of Eli - D17]”: the “apparent KD of MS2 coat protein” value is, setting by setting: (input ligand: arginine 13.2 mM) 42.6 nM; (input ligand: none) 51.5 nM; under setting [1], 69.1 nM; under setting [2], 68.2 nM; under setting [3], 43 nM.

For the sequence “UAACAUGAGGAUCACCCAUGUAUAGUCGAUACCAGCUCAAGGGAGAGCCCUUGGCAGCGACACUGGUAUCCAUGGGUGUGGAUAC [(Ms2)-(Theo)-(T)'-(M)'-(T)''_Design3]”, the “apparent KD of MS2 coat protein” value is 76.9 nM (input ligand: arginine 13.2 mM), 86.2 nM under setting [1] and 69.8 nM under setting [3].

Turning to “UAACAUGAGGCGGCCGCCACUCAACAUGAGGAUCACCCAUGUAUGUGUAAACAUGAGGAUCACCCGAGGACCGGGCCCUUGUAAU [Same State Tryptophan B 4]”, the “apparent KD of MS2 coat protein” value (input ligand: arginine 13.2 mM) worked out at 25.2 nM; the “apparent KD of MS2 coat protein” value (input ligand: none) was found to be 33.4 nM; the “apparent KD of MS2 coat protein” value under setting [1] worked out at 46.7 nM; the “apparent KD of MS2 coat protein” value under setting [2] stood at 39.5 nM; the “apparent KD of MS2 coat protein” value under setting [3] came out at 54.2 nM.

Consider “UAACGGCACUGAAGGAGCGAGUUGACAAACAUGAGGAUCACCCAUGUUAUGGGUUGUUAAUCUCAGGUAGGUCGCAGUUGUCGUA [Same State Arginine B GF 20]”, for which the “apparent KD of MS2 coat protein” value is, setting by setting: (input ligand: arginine 13.2 mM) 129 nM; (input ligand: none) 348 nM; under setting [1], 387 nM; under setting [2], 511 nM; under setting [3], 365 nM.

With “UAAUAAGUACCGGUCCUCAGAUCCUCAUGUCGAGGACCGGUACGGCCGCCACUCGAAACAUGAGGAUCACCCAUGUAAUAAUAAU [#06 Exclusion Tryptophan A]”, the “apparent KD of MS2 coat protein” value (input ligand: arginine 13.2 mM) was 24.5 nM, the “apparent KD of MS2 coat protein” value under setting [1] stood at 52.6 nM and the “apparent KD of MS2 coat protein” value under setting [2] is 44.3 nM.

Consider “UAAUCCGGUCCUCGAUAACAUGGGUGAAUACGAGGACCGGUACGGCCGCCACUCGAUAACAUGAGGAUCACCCAUGUAAUAAUAA [|T'-M'-Trp-Ms2|_Design15]”, for which the “apparent KD of MS2 coat protein” value (input ligand: arginine 13.2 mM) was found to be 38.2 nM, the “apparent KD of MS2 coat protein” value under setting [1] was 111 nM and the “apparent KD of MS2 coat protein” value under setting [2] worked out at 73.6 nM.

As for “UAAUGCAGGUCGGCCGCCACUACAACAUGAGGAUCACCCAUGUACAUGUUGUAGUACGGUAUGAGUAGGACCGGGACCUGCAUAA [Trp-Ms2-M'-T'-(MT)'_Design1]”, the “apparent KD of MS2 coat protein” value was found to be 213 nM (input ligand: arginine 13.2 mM); 299 nM (input ligand: none); 154 nM under setting [1]; 594 nM under setting [2]; 787 nM under setting [3].

With “UAAUGUGAGAGAAGGAGCGGAGGUCUCGUUACAACAUGAGGAUCACCCAUGUAACGUACCGUCCAGGUAGGUCGCUCUCGGGCGC [lvacmullin]”, the “apparent KD of MS2 coat protein” value turned out to be 17.4 nM (input ligand: arginine 13.2 mM); 13.2 nM (input ligand: none); 24.4 nM under setting [1]; 17.2 nM under setting [2]; 15.2 nM under setting [3].

As for “UAAUUUAUAGGGUAUAUCAGAUUAACUGAAGGAGCGUGGUAAUACACAGGUAGGUCGCAGAUGGAACAUGAGGAUCACCCAUGUU [JR_ExcArginiA_Sub016]”, the “apparent KD of MS2 coat protein” value is, setting by setting: (input ligand: arginine 13.2 mM) 17.6 nM; (input ligand: none) 20 nM; under setting [1], 27 nM; under setting [2], 25.7 nM; under setting [3], 21.2 nM.

“UACAUAUGCCGAAGGAGCGCGAGAAGCAAAGCUUCAUUCCUCACAUGAGGAUCACCCAUGUCGCAGGUAGGUCGCGGCAUAUGUU [#15 Exclusion - Arginine B]”: the “apparent KD of MS2 coat protein” value (input ligand: arginine 13.2 mM) stood at 23.7 nM; the “apparent KD of MS2 coat protein” value (input ligand: none) is 21.8 nM; the “apparent KD of MS2 coat protein” value under setting [1] was 42 nM; the “apparent KD of MS2 coat protein” value under setting [2] amounted to 28.2 nM; the “apparent KD of MS2 coat protein” value under setting [3] was 24 nM.

As to “UACAUAUGCCGAAGGAGCGUGAGAUGCAAAGCAUCAUUCCUCACAUGAGGAUCACCCAUGUCACAGGUAGGUCGCGGCAUAUGUU [ArgBX 3]”, the “apparent KD of MS2 coat protein” value is, setting by setting: (input ligand: arginine 13.2 mM) 94.3 nM; (input ligand: none) 90 nM; under setting [1], 115 nM; under setting [2], 117 nM; under setting [3], 96.9 nM.

Take “UACCCAUGAGUUGGAAAAGCUCAUGGGUAUCGAGGACCGGUACGGCCGCCACUCGGCUGUACAUGAGGAUCACCCAUGUCAGGGU [#1 Same State - Tryptophan A Attempt #24 (HarryS)]”: the “apparent KD of MS2 coat protein” value is 29.9 nM (input ligand: arginine 13.2 mM), 367 nM under setting [1] and 721 nM under setting [2].

With “UACCUUAACACGGCCGCCACUCUCUAAUAGGAUCAUGGUACCGCACAUGAGGAUCACCCAUGUUUGAGGACCGGGUGUUAUGAAG [theeternabot_sameState_MS2_Trp_B_24]”, the “apparent KD of MS2 coat protein” value reads like this: (input ligand: arginine 13.2 mM) 14.8 nM; under setting [1], 25 nM; under setting [2], 20.2 nM.

As to “UACUUGCUGACGGCCGCCACUAGAACAUGAGGAUCACCCAUGUACGGCGGCCGUCAUGGGUGGACUAGGACCGGGUCAGCAAGAU [(Trp1)-(Ms2)-(T)'-(M)'-(Trp2)_Design6]”, the “apparent KD of MS2 coat protein” value runs as follows: (input ligand: arginine 13.2 mM) 10.7 nM; (input ligand: none) 12 nM; under setting [1], 20.5 nM; under setting [2], 13.9 nM; under setting [3], 13.2 nM.

On to “UACUUGCUGACGGCCGCCACUAGAACAUGAGGAUCACCCAUGUAUGGCGGCCGAAUCCUCAUGACUAGGACCGGGUCAGCAAGAU [(Trp1)-(Ms2)-(T)'-(M)'-(Trp2)_Design2]”, for which the “apparent KD of MS2 coat protein” value turned out to be 8.18 nM (input ligand: arginine 13.2 mM); 8.09 nM (input ligand: none); 12.5 nM under setting [1]; 8.75 nM under setting [2]; 8.22 nM under setting [3].

In the case of “UACUUGCUGACGGCCGCCACUAGAACAUGAGGAUCACCCAUGUAUGGCGGCCGUCAUGGGUGGACUAGGACCGGGUCAGCAAGAU [(Trp1)-(Ms2)-(T)'-(M)'-(Trp2)_Design7]”, the “apparent KD of MS2 coat protein” value runs as follows: (input ligand: arginine 13.2 mM) 11.4 nM; under setting [1], 14.6 nM; under setting [2], 11.7 nM.

On to “UAGACGGCCGGAAGGAGCGGUACAUGAGGAUCACCCAUGUAUCUCUGGGCAUCCGUAGAGUGCCAGGUAGGUCGCCGGUUGCGGG [XArg-B22]”, for which the “apparent KD of MS2 coat protein” value (input ligand: arginine 13.2 mM) stood at 12.3 nM; the “apparent KD of MS2 coat protein” value (input ligand: none) came out at 11 nM; the “apparent KD of MS2 coat protein” value under setting [1] worked out at 13.8 nM; the “apparent KD of MS2 coat protein” value under setting [2] worked out at 11.5 nM; the “apparent KD of MS2 coat protein” value under setting [3] is 11.4 nM.

For the sequence “UAGCAUAGUACGGCCGCCACUCCUGGUUCCCGGCCGUGUGUAAGACAUGAGGAUCACCCAUGUAGGAGGACCGGGUAUCGCUUGC [theeternabot_sameState_MS2_Trp_B_22]”, the “apparent KD of MS2 coat protein” value is, setting by setting: (input ligand: arginine 13.2 mM) 12.5 nM; under setting [1], 20.2 nM; under setting [2], 15.6 nM.
